According to publication PMC10499537 (Biomedicine & pharmacotherapy = Biomedecine & …, 2023):
One block for each binder: values may come before it.

Key:
[1] = biological target: T1, ADAM10 D+C domains construct (species not named for the experiment) (Bos taurus, assumed); assay: ELISA
T1 chain: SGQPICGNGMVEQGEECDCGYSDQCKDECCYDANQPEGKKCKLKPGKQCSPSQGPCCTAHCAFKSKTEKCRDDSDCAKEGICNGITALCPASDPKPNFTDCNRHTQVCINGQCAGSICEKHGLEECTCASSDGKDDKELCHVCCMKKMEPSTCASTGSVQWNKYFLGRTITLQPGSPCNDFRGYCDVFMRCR

[2] = biological target: full recombinant ADAM10 ECD (species not named for the experiment) (Bos taurus, assumed, UniProt Q10741); assay: BLI
Chain of full recombinant ADAM10 ECD (species not named for the experiment) (Q10741 20-672): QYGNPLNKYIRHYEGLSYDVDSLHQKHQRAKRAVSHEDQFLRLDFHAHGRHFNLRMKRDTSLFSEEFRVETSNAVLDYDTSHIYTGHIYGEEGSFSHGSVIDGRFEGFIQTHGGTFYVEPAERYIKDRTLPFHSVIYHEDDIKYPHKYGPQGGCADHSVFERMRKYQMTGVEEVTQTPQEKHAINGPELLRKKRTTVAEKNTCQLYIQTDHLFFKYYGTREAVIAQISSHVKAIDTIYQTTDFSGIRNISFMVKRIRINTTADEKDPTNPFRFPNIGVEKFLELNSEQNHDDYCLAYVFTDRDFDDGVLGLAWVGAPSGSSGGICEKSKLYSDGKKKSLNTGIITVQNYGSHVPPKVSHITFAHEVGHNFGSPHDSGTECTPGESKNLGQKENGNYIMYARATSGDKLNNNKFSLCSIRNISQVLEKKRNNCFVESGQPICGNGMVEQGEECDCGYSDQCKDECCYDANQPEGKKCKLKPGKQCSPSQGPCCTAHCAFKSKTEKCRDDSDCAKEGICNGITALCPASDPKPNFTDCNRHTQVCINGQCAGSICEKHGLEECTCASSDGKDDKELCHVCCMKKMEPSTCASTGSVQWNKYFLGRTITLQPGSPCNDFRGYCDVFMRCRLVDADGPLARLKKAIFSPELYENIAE

[3] = biological target: human ADAM17 D+C (482-648) (Homo sapiens, UniProt P78536); assay: ELISA
Chain of human ADAM17 D+C (482-648) (P78536 482-648): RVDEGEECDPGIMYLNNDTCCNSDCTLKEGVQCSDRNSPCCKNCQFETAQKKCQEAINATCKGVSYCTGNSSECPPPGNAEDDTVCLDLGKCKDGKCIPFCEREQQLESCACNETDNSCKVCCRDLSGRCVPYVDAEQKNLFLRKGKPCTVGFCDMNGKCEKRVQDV

[4] = biological target: human ADAM19 D+C construct (438-646) (Homo sapiens, UniProt Q9H013); assay: ELISA
Chain of human ADAM19 D+C construct (438-646) (Q9H013 438-646): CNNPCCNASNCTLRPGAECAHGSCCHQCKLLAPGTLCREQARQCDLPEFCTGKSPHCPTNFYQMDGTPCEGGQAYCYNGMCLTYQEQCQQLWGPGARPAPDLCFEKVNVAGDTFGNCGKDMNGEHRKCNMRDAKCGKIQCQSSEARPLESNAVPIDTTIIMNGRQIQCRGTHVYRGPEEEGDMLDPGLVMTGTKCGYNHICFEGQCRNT

- binding result [1]: binds
B1: murine anti-ADAM10 monoclonal antibody 8C7 (IgG) (antibody, V domains shown)
VH: QVQLEESGAELARPGSSVKLSCKASGYTFTNYWLQWVKQRTGQGLEWIGAIYPRDGDAKYSQKFKDKASLTVNESSSTAYMHLSALASEDSAVYYCARANYGLYYAMDRWGQGTSVTVSS
VL: DIFLTQSPANMSVSPGERVSFSCRASQNIGTNIHWYQQRTNGSPRLLIKYASESISGIPSRFSGSGSGTDFILSINTVESEDIAVYFCQQSNRWPFTFGSGTKLEVI

- Kd [2]: ~200 nM
- binding result [3]: no binding
- binding result [4]: no binding
B2: fully human anti-ADAM10 monoclonal antibody 1H5 (IgG) (antibody, V domains shown)
VH: QVQLVESGGGLVKPGGSLRLSCAASGFTFSDYYMSWIRQAPGKGLEWVSYISSSGSTIYYADSVKGRFTISRDNAKNSLYLQMNSLRAEDTAVYYCARDFYDSKIFDYWGQGTLVTVSS
VL: DIQMTQSPSSLSASVGDRVTITCRASQSISSYLNWYQQKPGKAPKLLIYAASSLQSGVPSRFSGSGSGTDFTLTISSLQPEDVGVYYCMEGLKTPFTFGPGTKLEIK
